These are literature values, as cited in publication PMC4489423.

Data set [1] deals with IL-10R1 ECD (Homo sapiens) (UniProt Q13651). Put plainly: SPR.
Data set [2] concerns the target IL-10R2 ECD (Homo sapiens) (UniProt Q08334). Put plainly: SPR.
For data set [3] the target is unchanged.

Where two headings read alike, the source gives them in different places.

Sequence of IL-10R2 ECD (Homo sapiens) (Q08334 20-220): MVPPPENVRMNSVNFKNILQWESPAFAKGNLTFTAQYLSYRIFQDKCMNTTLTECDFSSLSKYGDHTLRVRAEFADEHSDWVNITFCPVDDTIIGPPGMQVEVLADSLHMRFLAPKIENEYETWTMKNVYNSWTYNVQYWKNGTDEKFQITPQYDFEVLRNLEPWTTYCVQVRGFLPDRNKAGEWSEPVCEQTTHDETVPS
Sequence of IL-10 (P22301 19-178): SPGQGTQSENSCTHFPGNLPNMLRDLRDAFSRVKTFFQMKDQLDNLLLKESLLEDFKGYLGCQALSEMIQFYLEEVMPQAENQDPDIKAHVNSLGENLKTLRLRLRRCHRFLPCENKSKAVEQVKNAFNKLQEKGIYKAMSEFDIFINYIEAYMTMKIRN
Sequence of IL-10R1 ECD (Homo sapiens) (Q13651 22-235): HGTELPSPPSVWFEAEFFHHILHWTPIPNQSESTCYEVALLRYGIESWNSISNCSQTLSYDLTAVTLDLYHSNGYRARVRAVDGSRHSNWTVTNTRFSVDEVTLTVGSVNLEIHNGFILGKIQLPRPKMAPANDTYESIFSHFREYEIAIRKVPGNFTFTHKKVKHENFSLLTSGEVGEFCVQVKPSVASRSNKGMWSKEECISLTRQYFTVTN
Sequence of IL-10/IL-10R1 complex (P22301 19-178): as the sequence (P22301 19-178) above
Sequence of IL-10/IL-10R1 complex (Q13651 22-235, further chain): as the sequence (Q13651 22-235) above

IL-10 (from UniProt P22301): the Kd in data set [1] is 0.00024 µM; in data set [2], 3000 µM. As for “IL-10/IL-10R1 complex (from UniProt P22301)”, the Kd in data set [3] was 234 µM.
